Measured values as given in the supplement of paper PMC10567573.
± gives the standard deviation.

Assay: protein stability index of a GFP-peptide fusion (GPS, HEK-293T) (PSI 1-6); higher = more stable
[1] = treatment: DMSO, c terminus: a fixed tail appended
[2] = treatment: MLN4924 1 uM, 8 h, c terminus: a fixed tail appended
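Note: 24-mer peptide tiles fused after GFP, lentivirally expressed, FACS-sorted into six equal bins by GFP/DsRed ratio, decoded by Illumina sequencing, PSI is the read-weighted mean bin number.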

| Sequence | protein stability index [1] | protein stability index [2] | protein stability index (treatment: DMSO, c terminus: native) | protein stability index (treatment: MLN4924 1 uM, 8 h, c terminus: native) |
| --- | --- | --- | --- | --- |
| GISALVEIPKNCVVAAVGKELIIF [WDR41] | 2.01 ± 1.1 | 2.69 ± 1.3 |  |  |
| GKGEARARLKRSQSFGVASASSIK [SMTNL2] | 4.6 ± 0.43 | 4.61 ± 0.38 |  |  |
| GKGSGGNAGSYIPSYTSWYPSAHQ [DLX1] | 2.56 ± 0.43 | 2.69 ± 0.48 |  |  |
| GKPLIPPMNRRNILVMKHNYSQDA [NETO1] | 2.98 ± 0.4 | 3.31 ± 0.28 |  |  |
| GKSPSITFEYTLLQPPHESRPQPI [ADAMTSL2] | 2.83 ± 0.4 | 2.83 ± 0.29 |  |  |
| GLAGLLPASYTAPIMSGQGLAGFF [SLC29A1] | 2.06 ± 0.25 | 2.1 ± 0.086 |  |  |
| GLDFHRFYFENLWSRNSKPVHTTI [CAMK2A] | 2.28 ± 0.58 | 2.11 ± 0.32 |  |  |
| GLLAGVGYFAFMLFRKRLGSMILA [GDAP1] | 1.99 ± 0.082 | 2.37 ± 0.41 |  |  |
| GLLLGSHGLLGSPVRAAASSPVTT [CDC25B] | 2.74 ± 0.28 | 3.26 ± 0.31 |  |  |
| GLQPVVFVLFLFAYLVTVRGNLSI [OR3A1] | 2.6 ± 0.47 | 2.19 ± 0.21 |  |  |
| GLQSAQPTEGQGSLLTNWPSVPPT [MYBL2] | 4.02 ± 0.28 | 4.14 ± 0.092 |  |  |
| GMESYQEVTVQRNCCLTLCNFSIP [ZER1] | 2.41 ± 0.52 | 2.1 ± 0.42 |  |  |
| GMPSSLAHRIAAQTLLGTAKMLLH [PYCR3] | 2.4 ± 1.2 | 2.29 ± 0.3 |  |  |
| GNSTQATVRDAVVGRPSMDKKAQ [ATL3] |  |  | 5.28 ± 0.13 | 5.21 ± 0.23 |
| GQIIKDIDSGSPAEEAGLKNNDLV [PDZK1] | 5.31 ± 0.33 | 5.27 ± 0.079 |  |  |
| GRAGAVGTPGERGPPGPPGPPGPP [EMID1] | 4.6 ± 0.44 | 4.68 ± 0.22 |  |  |
| GRLELKPLLLRLPRICQRNLMSLL [FANCE] | 2.63 ± 0.33 | 2.7 ± 0.23 |  |  |
| GRLILSTIRLRPRQVLCEKCKSTL [PWWP2B] | 2.2 ± 0.4 | 2.56 ± 0.55 |  |  |
| GRNHTPFLGHHSFSVRPGTEATIS [SCNN1D] | 3.65 ± 0.14 | 3.78 ± 0.25 |  |  |
| GRSSMGTGLSGGKRPSQEEDTQSI [CRY1] | 5.51 ± 0.17 | 5.37 ± 0.29 |  |  |
| GSKLEKGHLRGPEIRDWRGPQLEG [ZSWIM9] | 3.87 ± 0.35 | 3.85 ± 0.2 |  |  |
| GSKSQRYSGAYGASVSDEELKRRV [CHCHD3] | 4.99 ± 0.29 | 4.86 ± 0.18 |  |  |

| Sequence | protein stability index [1] | protein stability index [2] | protein stability index (treatment: DMSO, c terminus: native) | protein stability index (treatment: MLN4924 1 uM, 8 h, c terminus: native) |
| --- | --- | --- | --- | --- |
| GSLHYTTLRTLTGQDTMLKAMFSG [KCTD13] | 2.46 ± 0.26 | 2.61 ± 0.21 |  |  |
| GSSASTSPAPLDTCPSSSTASSIS [DYRK1B] | 5.22 ± 0.12 | 5.3 ± 0.078 |  |  |
| GSSDKVYAHQMVRTDSREQKLDAF [MLH1] | 4.12 ± 0.13 | 4.13 ± 0.27 |  |  |
| GTAHIPPTMHLESPALQVMGPAQE [ZNF449] | 4.78 ± 0.25 | 4.73 ± 0.17 |  |  |
| GTDEEEEEFIEEEDQEEEESTEGK [TRIM63] | 5.71 ± 0.17 | 5.56 ± 0.24 |  |  |
| GTKCHGCDFKIDAGDRFLEALGFS [PDLIM7] | 2.63 ± 0.22 | 2.42 ± 0.36 |  |  |
| GTTLVVGLLAGVGYFAFMLFRKRL [GDAP1] | 2.41 ± 0.49 | 2.63 ± 0.22 |  |  |
| GVGKSALTVQFVQGIFVEKYDPTI [RAP1B] | 2.25 ± 0.28 | 2.07 ± 0.25 |  |  |
| GVMLYTLLVGRYPFHDSDPSALFS [TRIB1] | 2.52 ± 0.37 | 2.7 ± 0.46 |  |  |
| GVVVCEADTGRIHRFVEKPQVFVS [GMPPB] | 2.25 ± 0.19 | 2.28 ± 0.3 |  |  |
| GVYMTDITPQGVAMRAGVLADDHL [PDZK1] | 3.54 ± 0.46 | 3.34 ± 0.21 |  |  |
| GWLPSHEGHLDDGGYTPDLKMSYS [RBMY1A1] | 3.62 ± 0.15 | 3.5 ± 0.36 |  |  |
| HAPGVPKILVGNRLHLAFKRQVPT [RAB40B] | 2.49 ± 0.5 | 2.6 ± 0.35 |  |  |
| HCLHSAGHSQPDGAYSSASSFSRP [DLX1] | 3.53 ± 0.27 | 3.61 ± 0.17 |  |  |
| HFPHLLSPQIQRSAHRALYRRHVL [TMEM175] | 2.69 ± 0.26 | 2.85 ± 0.15 |  |  |
| HGSGSHPGPASGPGPDTGPDSELS [SPAG8] | 5.41 ± 0.25 | 5.37 ± 0.36 |  |  |
| HHPENGEETVTMLEDVERELDGPK [ZNF396] | 5.51 ± 0.13 | 5.49 ± 0.15 |  |  |
| HIGNSTQATVRDAVVGRPSMDKKA [ATL3] | 3.97 ± 0.21 | 4.49 ± 0.6 |  |  |
| HKARTRPKARKQGVSPADMYRWKL [ADAMTSL2] | 3.32 ± 0.25 | 3.31 ± 0.42 |  |  |
| HLRATEKMKTRELHRESSNFDSIY [HDAC6] | 3.18 ± 0.43 | 3.46 ± 0.2 |  |  |
| HLVQHQRIHSGEKPYECNECGKAF [ZNF232] | 3.65 ± 0.21 | 3.8 ± 0.098 |  |  |
| HNGDMEKILLDAQHESGQSSSRGS [BNIP3L] | 5.18 ± 0.17 | 5.32 ± 0.3 |  |  |

| Sequence | protein stability index [1] | protein stability index [2] | protein stability index (treatment: DMSO, c terminus: native) | protein stability index (treatment: MLN4924 1 uM, 8 h, c terminus: native) |
| --- | --- | --- | --- | --- |
| HPFFDTAEPDMDDPAYIAVLVLIF [INTS4] | 2.61 ± 0.57 | 2.66 ± 0.62 |  |  |
| HPFYHCLVAEVPKEHWTPEGHSIV [SAT1] | 2.76 ± 0.33 | 2.54 ± 0.25 |  |  |
| HPTPFLAFLRRVKTCNPPDAGPMV [PTPRD] | 2.37 ± 0.12 | 2.26 ± 0.18 |  |  |
| HQADLEVANRHGHTCLMISCYKGH [FEM1A] | 2.73 ± 0.33 | 2.69 ± 0.45 |  |  |
| HQMGVVHRDLKPENLLLASKLKGA [CAMK2A] | 3.73 ± 0.21 | 3.82 ± 0.12 |  |  |
| HQPKGLEEENAQLRGALQQGEAFQ [PBXIP1] | 5.07 ± 0.24 | 5.05 ± 0.12 |  |  |
| HQVTVNESLLAPLNVELDPEIQKV [KRT71] | 4.73 ± 0.2 | 4.45 ± 0.15 |  |  |
| HRRIHTGEKPYECQDCGRAFNQNS [ZNF8] | 3.75 ± 0.53 | 4.1 ± 0.27 |  |  |
| HSDPEESFARDLPDFPSINMDPAG [RETREG3] | 5.19 ± 0.25 | 5.22 ± 0.16 |  |  |
| HSVLVDDDGIKVVKVTFNKQDSLV [TMEM106C] | 3.09 ± 0.27 | 3.18 ± 0.36 |  |  |
| HTDMTNKQNKTPLDKSTTGVSEIL [FEM1B] | 4.85 ± 0.49 | 5.05 ± 0.25 |  |  |
| HTEASAQRSHMGKLKEPQPQDHKP | 5.24 ± 0.71 | 5.24 ± 0.33 |  |  |
| HTGLKPYECGVCAKKFMWRDSFMR [ZBTB22] | 2.65 ± 0.52 | 2.44 ± 0.6 |  |  |
| HVAGEQMLEDGPHNANRGQRLLAF [CCDC70] | 4.07 ± 0.25 | 4.04 ± 0.24 |  |  |
| HVEVARLLLENGAGINTHSNEFKE [ANKRD17] | 3.69 ± 0.39 | 3.39 ± 0.22 |  |  |
| HVKEQLPCAGLNCQALDANLDANL [TLE6] | 4.42 ± 0.19 | 4.64 ± 0.24 |  |  |
| IAAAVYIMDTVGNIWVCYASYVVF [SLC19A2] | 2.89 ± 0.13 | 2.87 ± 0.27 |  |  |
| IASEWFLIANRSYKVSAASSFFFS [SLC22A15] | 3.03 ± 0.19 | 2.94 ± 0.42 |  |  |
| IAVAWIYGTKKFMQELTEMLGFRP [SLC6A17] | 2.62 ± 0.78 | 2.1 ± 0.61 |  |  |
| ICKSDAPTGDVLLDEALKHVKETQ [GOLPH3] | 4.64 ± 0.3 | 4.72 ± 0.16 |  |  |
| IEREHLIQLRRWQETRGELQCRSP [TBC1D10A] | 3.88 ± 0.2 | 3.82 ± 0.24 |  |  |
